# Measured values reported in patent publication US20250333467A1 (TECTONIC OPERATING, published 2025).
# Read-outs that look alike come from different tables or passages of the source.
# T1: rat RXFP1 (rat, UniProt Q6R6I6 1-758)
# T1 sequence (looked up): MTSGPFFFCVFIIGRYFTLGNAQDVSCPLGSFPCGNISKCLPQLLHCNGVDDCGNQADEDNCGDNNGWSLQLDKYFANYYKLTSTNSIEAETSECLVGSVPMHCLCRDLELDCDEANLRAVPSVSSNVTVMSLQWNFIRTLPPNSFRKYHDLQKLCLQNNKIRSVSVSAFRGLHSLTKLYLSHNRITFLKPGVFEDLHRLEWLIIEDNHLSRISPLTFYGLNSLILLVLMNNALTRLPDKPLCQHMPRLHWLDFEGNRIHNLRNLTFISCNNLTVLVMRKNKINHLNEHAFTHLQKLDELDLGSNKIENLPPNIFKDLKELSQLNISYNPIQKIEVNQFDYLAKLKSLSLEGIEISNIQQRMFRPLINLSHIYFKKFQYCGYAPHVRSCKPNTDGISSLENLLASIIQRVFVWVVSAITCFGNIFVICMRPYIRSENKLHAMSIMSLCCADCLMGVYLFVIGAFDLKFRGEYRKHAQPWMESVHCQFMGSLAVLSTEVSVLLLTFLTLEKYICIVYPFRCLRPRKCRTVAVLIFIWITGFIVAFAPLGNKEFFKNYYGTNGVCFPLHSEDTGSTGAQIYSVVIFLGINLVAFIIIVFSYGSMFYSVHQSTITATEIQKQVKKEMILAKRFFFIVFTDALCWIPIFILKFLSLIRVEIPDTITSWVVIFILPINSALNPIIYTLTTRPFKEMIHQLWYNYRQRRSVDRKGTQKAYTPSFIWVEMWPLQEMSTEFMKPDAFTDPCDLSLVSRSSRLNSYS
# T2: human RXFP1 (human, UniProt Q9HBX9 1-757)
# T2 sequence (looked up): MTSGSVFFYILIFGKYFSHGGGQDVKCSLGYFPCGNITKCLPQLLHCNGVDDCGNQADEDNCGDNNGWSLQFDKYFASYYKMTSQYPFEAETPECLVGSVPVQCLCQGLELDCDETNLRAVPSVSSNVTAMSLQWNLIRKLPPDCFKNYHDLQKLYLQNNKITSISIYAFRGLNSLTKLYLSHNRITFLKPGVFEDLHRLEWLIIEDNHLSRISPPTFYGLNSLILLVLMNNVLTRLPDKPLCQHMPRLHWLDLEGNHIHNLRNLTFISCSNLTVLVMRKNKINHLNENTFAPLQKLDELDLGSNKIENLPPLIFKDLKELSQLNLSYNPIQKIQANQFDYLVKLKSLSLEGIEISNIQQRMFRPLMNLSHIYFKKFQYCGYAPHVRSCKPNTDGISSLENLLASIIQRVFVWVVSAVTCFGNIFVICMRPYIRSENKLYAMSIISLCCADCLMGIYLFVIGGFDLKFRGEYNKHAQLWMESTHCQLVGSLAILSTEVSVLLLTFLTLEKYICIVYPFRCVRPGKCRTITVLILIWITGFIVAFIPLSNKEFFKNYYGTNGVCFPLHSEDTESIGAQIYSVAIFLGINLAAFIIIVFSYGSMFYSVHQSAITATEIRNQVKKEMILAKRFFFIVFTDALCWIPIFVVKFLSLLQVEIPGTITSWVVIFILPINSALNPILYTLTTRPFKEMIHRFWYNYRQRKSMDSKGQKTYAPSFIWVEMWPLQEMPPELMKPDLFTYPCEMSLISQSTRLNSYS
# Columns and labels:
# Assay in all cases: cell-based or functional assay
# rat RXFP1 = target: T1, rat RXFP1
# human RXFP1 [1] = target: T2, human RXFP1
# human RXFP1 [2] = target: T2, human RXFP1; remark: listed apart in the source
# human RXFP1 [3] = target: T2, human RXFP1; remark: listed apart in the source
Binder,Transient HEK293 rRXFP1 cAMP EC50 (rat RXFP1),THP1 (endogenous RXFP1) cAMP EC50 (human RXFP1 [1]),Transient HEK293 hRXFP1 cAMP EC50 (human RXFP1 [1]),"Potency (cAMP, transient hRXFP1 in HEK293) (human RXFP1 [2])","Potency (cAMP, transient hRXFP1 in HEK293) (human RXFP1 [3])"
SEQ ID NO: 313 (Fc fusion) DKTHTCPPCPAPEAAGGPSVFLFPPKPKDTLMISRTPEVTCVVVDVSHEDPEVKFNWYVDGVEVHNAKTKPREEQYNSTYRVVSVLTVLHQDWLNGKEYKCKVSNKALAAPIEKTISKAKGQPREPQVYTLPPSRDELTKNQVSLTCLVKGFYPSDIAVEWESNGQPENNYKTTPPVLDSDGSFFLYSKLTVDKSRWQQGNVFSCSVLHEALHSHYTQKSLSLSPGKGGSDSWQEEVIKLCGRELVRAQIAICGKSTGGGEGGGEGGGEGRQLYSALANKCCHVGCTKRSLAQFC,15.1 nM,49 nM,10 nM,4.2 nM,
SEQ ID NO: 317 (Fc fusion) DKTHTCPPCPAPEAAGGPSVFLFPPKPKDTLMISRTPEVTCVVVDVSHEDPEVKFNWYVDGVEVHNAKTKPREEQYNSTYRVVSVLTVLHQDWLNGKEYKCKVSNKALAAPIEKTISKAKGQPREPQVYTLPPSRDELTKNQVSLTCLVKGFYPSDIAVEWESNGQPENNYKTTPPVLDSDGSFFLYSKLTVDKSRWQQGNVFSCSVLHEALHSHYTQKSLSLSPGGGSDSWQEEVIKLCGRELVRAQIAICGKSTGGGEGGGEGGGEGRQLYSALANKCCHVGCTKRSLAQFC,31.2 nM,63 nM,38.2 nM,8 nM,
SEQ ID NO: 86 (Fc fusion) DKTHTCPPCPAPEAAGGPSVFLFPPKPKDTLMISRTPEVTCVVVDVSHEDPEVKFNWYVDGVEVHNAKTKPREEQYNSTYRVVSVLTVLHQDWLNGKEYKCKVSNKALAAPIEKTISKAKGQPREPQVYTLPPSRDELTKNQVSLTCLVKGFYPSDIAVEWESNGQPENNYKTTPPVLDSDGSFFLYSKLTVDKSRWQQGNVFSCSVLHEALHSHYTQKSLSLSPGKGGSDSWQEEVIKLCGRELVRAQIAICGKSTASDAAGADADAGARQLYSALANKCCHVGCTKRSLAQFC,24.5 nM,30 nM,7.46 nM,4 nM,
SEQ ID NO: 91 (Fc fusion) DKTHTCPPCPAPEAAGGPSVFLFPPKPKDTLMISRTPEVTCVVVDVSHEDPEVKFNWYVDGVEVHNAKTKPREEQYNSTYRVVSVLTVLHQDWLNGKEYKCKVSNKALAAPIEKTISKAKGQPREPQVYTLPPSRDELTKNQVSLTCLVKGFYPSDIAVEWESNGQPENNYKTTPPVLDSDGSFFLYSKLTVDKSRWQQGNVFSCSVLHEALHSHYTQKSLSLSPGEGGSDSWQEEVIKLCGRELVRAQIAICGKSTASDAAGADANAGARQLYSALANKCCHVGCTKRSLAQFC,12.4 nM,30 nM,10.2 nM,3.9 nM,
SEQ ID NO: 93 (Fc fusion) DKTHTCPPCPAPEAAGGPSVFLFPPKPKDTLMISRTPEVTCVVVDVSHEDPEVKFNWYVDGVEVHNAKTKPREEQYNSTYRVVSVLTVLHQDWLNGKEYKCKVSNKALAAPIEKTISKAKGQPREPQVYTLPPSRDELTKNQVSLTCLVKGFYPSDIAVEWESNGQPENNYKTTPPVLDSDGSFFLYSKLTVDKSRWQQGNVFSCSVLHEALHSHYTQKSLSLSPGEGGSDSWQEEVIKLCGRELVRAQIAICGKSTASDAAGADADAGARQLYSALANKCCHVGCTKRSLAQFC,21.3 nM,90 nM,19.1 nM,11.1 nM,
SEQ ID NO: 95 (Fc fusion) DKTHTCPPCPAPEAAGGPSVFLFPPKPKDTLMISRTPEVTCVVVDVSHEDPEVKFNWYVDGVEVHNAKTKPREEQYNSTYRVVSVLTVLHQDWLNGKEYKCKVSNKALAAPIEKTISKAKGQPREPQVYTLPPSRDELTKNQVSLTCLVKGFYPSDIAVEWESNGQPENNYKTTPPVLDSDGSFFLYSKLTVDKSRWQQGNVFSCSVLHEALHSHYTQKSLSLSPGEGGSDSWQEEVIKLCGRELVRAQIAICGKSTASDAAGAQADAGARQLYSALANKCCHVGCTKRSLAQFC,13.5 nM,26 nM,10.9 nM,6.8 nM,
SEQ ID NO: 98 (Fc fusion) DKTHTCPPCPAPEAAGGPSVFLFPPKPKDTLMISRTPEVTCVVVDVSHEDPEVKFNWYVDGVEVHNAKTKPREEQYNSTYRVVSVLTVLHQDWLNGKEYKCKVSNKALAAPIEKTISKAKGQPREPQVYTLPPSRDELTKNQVSLTCLVKGFYPSDIAVEWESNGQPENNYKTTPPVLDSDGSFFLYSKLTVDKSRWQQGNVFSCSVLHEALHSHYTQKSLSLSPGEGGSDSWQEEVIKLCGRELVRAQIAICGQSTASDAAGADANAGARQLYSALANKCCHVGCTKRSLAQFC,29.1 nM,100 nM,21.5 nM,8.8 nM,
SEQ ID NO: 104 (Fc fusion) DKTHTCPPCPAPEAAGGPSVFLFPPKPKDTLMISRTPEVTCVVVDVSHEDPEVKFNWYVDGVEVHNAKTKPREEQYNSTYRVVSVLTVLHQDWLNGKEYKCKVSNKALAAPIEKTISKAKGQPREPQVYTLPPSRDELTKNQVSLTCLVKGFYPSDIAVEWESNGQPENNYKTTPPVLDSDGSFFLYSKLTVDKSRWQQGNVFSCSVLHEALHSHYTQKSLSLSPGEGGSDSWQEEVIKLCGRELVRAQIAICGQSTASDAAGAQAQAGARQLYSALANKCCHVGCTKRSLAQFC,6.74 nM,11 nM,6.17 nM,2.8 nM,
SEQ ID NO: 129 (Fc fusion) DKTHTCPPCPAPEAAGGPSVFLFPPKPKDTLMISRTPEVTCVVVDVSHEDPEVKFNWYVDGVEVHNAKTKPREEQYNSTYRVVSVLTVLHQDWLNGKEYKCKVSNKALAAPIEKTISKAKGQPREPQVYTLPPSRDELTKNQVSLTCLVKGFYPSDIAVEWESNGQPENNYKTTPPVLDSDGSFFLYSKLTVDKSRWQQGNVFSCSVLHEALHSHYTQKSLSLSPGEGGSDSYQEEVIKLCGRELVRAQIAICGKSTGGEGSGGEGEGGGRQLYSALANKCCYVGCTKRSLAQFC,,,,,42.4 nM
SEQ ID NO: 130 (Fc fusion) DKTHTCPPCPAPEAAGGPSVFLFPPKPKDTLMISRTPEVTCVVVDVSHEDPEVKFNWYVDGVEVHNAKTKPREEQYNSTYRVVSVLTVLHQDWLNGKEYKCKVSNKALAAPIEKTISKAKGQPREPQVYTLPPSRDELTKNQVSLTCLVKGFYPSDIAVEWESNGQPENNYKTTPPVLDSDGSFFLYSKLTVDKSRWQQGNVFSCSVLHEALHSHYTQKSLSLSPGEGGSDSYQEEVIKLCGRELVRAQIAICGKSTGGEGSGGEGEGGGRQLYSALANKCCKVGCTKRSLAQFC,,,,,24.6 nM
SEQ ID NO: 131 (Fc fusion) DKTHTCPPCPAPEAAGGPSVFLFPPKPKDTLMISRTPEVTCVVVDVSHEDPEVKFNWYVDGVEVHNAKTKPREEQYNSTYRVVSVLTVLHQDWLNGKEYKCKVSNKALAAPIEKTISKAKGQPREPQVYTLPPSRDELTKNQVSLTCLVKGFYPSDIAVEWESNGQPENNYKTTPPVLDSDGSFFLYSKLTVDKSRWQQGNVFSCSVLHEALHSHYTQKSLSLSPGEGGSDSYQEEVIKLCGRELVRAQIAICGKSTGGEGSGGEGSGGGRQLYSALANKCCYVGCTKRSLAQFC,,,,,16.4 nM
SEQ ID NO: 132 (Fc fusion) DKTHTCPPCPAPEAAGGPSVFLFPPKPKDTLMISRTPEVTCVVVDVSHEDPEVKFNWYVDGVEVHNAKTKPREEQYNSTYRVVSVLTVLHQDWLNGKEYKCKVSNKALAAPIEKTISKAKGQPREPQVYTLPPSRDELTKNQVSLTCLVKGFYPSDIAVEWESNGQPENNYKTTPPVLDSDGSFFLYSKLTVDKSRWQQGNVFSCSVLHEALHSHYTQKSLSLSPGEGGSDSYQEEVIKLCGRELVRAQIAICGKSTGGEGSGGEGSGGGRQLYSALANKCCKVGCTKRSLAQFC,,,,,11.2 nM
